In series [1] the target is C. elegans Vps32^E94K (C. elegans). Description: SEC.
The target of series [2] is C. elegans Vps4^E219Q (as used alone in light scattering and EM) (C. elegans). Description: SEC-MALS. A general note: SEC sorts molecules by how far they enter the pores of the column.
The target in series [3] is C. elegans Vps32 (full length, wild type) (C. elegans). Description: cryo-EM imaging.
Series [4] deals with the molecule itself. Description: negative staining EM.

The record followed here is publication PMC4164947 (The Journal of Cell Biology, 2014).

For orientation: stoichiometry N means the number of molecules, sites or subunits per partner or assembly.

For the molecule C. elegans Vps32^E94K (natural protein), the percent of the total protein in oligomers in series [1] is less than 5%.

Molecule “C. elegans Vps4^E219Q (as used alone in light scattering and EM) (enzyme)” registered a stoichiometry N in series [2] of 6. Regarding “C. elegans Vps32 (full length, wild type) (natural protein)”, the stoichiometry N in series [3] is 800.

B1: yeast Snf7^R52E (natural protein)
chain: MWSSLFGWTSSNAKNKESPTKAIVRLREHINLLSKKQSHLRTQITNQENEAEIFLTKGNKVMAKNALKKKKTIEQLLSKVEGTMESMEQQLFSIESANLNLETMRAMQEGAKAMKTIHSGLDIDKVDETMDEIREQVELGDEISDAISRPLITGANEVDEDELDEELDMLAQENANQETSKIVNNNVNAAPISENKVSLPSVPSNKIKQSENSVKDGEEEEDEEDEDEKALRELQAEMGL
For B1, the binding result in series [4] is on record as “binds”.
